Results on 1 substance are retold here after US20240342199.

Data set [1] has as its target Recombinant CypD Ser123→Ala mutant (UniProt P30405).
In data set [2] the target is Recombinant GST-CypD (wild type) (UniProt P30405).
Sequence of Recombinant GST-CypD (wild type) (P30405 whole entry): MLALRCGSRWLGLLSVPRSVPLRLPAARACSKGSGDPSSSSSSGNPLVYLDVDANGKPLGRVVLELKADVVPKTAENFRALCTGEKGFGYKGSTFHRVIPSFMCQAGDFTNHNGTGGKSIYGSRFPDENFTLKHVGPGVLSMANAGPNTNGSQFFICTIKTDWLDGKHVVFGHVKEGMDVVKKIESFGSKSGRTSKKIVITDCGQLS

Sequence of Recombinant CypD Ser123→Ala mutant (P30405 whole entry, looked up, change not shown): as the sequence (P30405 whole entry) above

Turning to active Akt1, the “kinase assay with recombinant proteins, autoradiography” value in data set [1] and in data set [2] was “readily phosphorylated” throughout.
